Measurements published in a protein production outcome set (Wang et al. 2014).

experiment: label from the status in PepcDB records

Sequence	protein production
MSLVSVIILASGNSQRMGQNKLFLKYQGKTFLEHTLTLVNQLDVLERILVVSPENQPAFPLPKNIQLILNHQWQEGQSSSIRLGTEQARGAGYLYLPSDQPLLTPKMLQLVLDKCQRNKIVVPLQKDGCPSSPVLFGNQFRQELLTLTGEKGGRMIYERFPEAVQMLRIATPGRLKDIDTPEEYQKLIQETNSLEHHHHHH	failed
MSLVVCQPQINESFYQKDDMGGLSFLQSMSDITSIAQTKEDKAYVHPMEKRSVSKLNEKSLEMCTESLGTETGSESGDELSLLAFEATTTPRAPPRQLKPQEDTNLPDKTPPMSRNNSFPPPIKFVEDSKYNRMVRWLGEDGRIVVQAIRVSSPPSCFVSERGEGRLRLILTSESSLLSHNHEEEEEEETEEGIDEETSENLEGKSGNKKFSRFSRRCKENGREPKPMLTWKQQQFWVAT	failed
MSLYKLYSMQRSGNSYKVRLALALLDAPYRAVEVDILRGESRTPDFLAKNPSGQVPLLETAPGRYLAESNAILWYLAVGTSLAPDTRMDRAEALQWMFFEQHALEPNIGSAYFWLCLVKGGRDLQTHALEDWLERGYAALQVMENHLKTNDYFAAGQLTIADIALYGYTHVADQCDFDLSTFPAVNAWLRRVEQTPGFITMDWTPETIAADPTSFAAEGHHHHHH	not failed
MSLYNYVLFDLDGTLTDSAEGITKSVKYSLNKFDIQVEDLSSLNKFVGPPLKTSFMEYYNFDEETATVAIDYYRDYFKAKGMFENKVYDGIEALLSSLKDYGFHLVVATSKPTVFSKQILEHFKLAFYFDAIVGSSLDGKLSTKEDVIRYAMESLNIKSDDAIMIGDREYDVIGALKNNLPSIGVTYGFGSYEELKNAGANYIVNSVDELHKKILELREGHHHHHH	not failed
MSMLANFDFASFFAVAAAIVIGLYVVLDGFDLGVGILFPFAPRVSDRDAMMATLEPFWDGNETWLVLGGMVLLGAFPLAFAILLPAFYVPLCLMLFGLVIRGVAFEFRSQGGRFQIVWSATFAAGSFIAAFCQGAVLGAFVGRSITVSDGAFAGGPFDWLGLFSIATGLGVVAAYGLLGACWLVWKTSGSTQNFGRELMLPTLLCAGAAIVLISVWTPFAKPQIAERWFAWPDALLLAPLPIIAVLAGIGILLTRWSEREWAPLALSLLLFVTSLAGLGASVWPEAIPGVMTIWQASSMHRTQVIVAGAVVIIGPIILAYIGYGYWLFRGKTKPVPEFPPR	failed
MSMLKRTLVLLGDTPSSLAARAYAFRLVQQTGTDLTGLAGVDLGEIEAPMLGGIGMSAYQTQLQTELKRQADATRERLQAAFSDECRSRSIACAALSFEGDAADGFRLATETRDLAIAGHDTGFGGSQEPLSAMIAKLVVRTPRPLIVCPDELPAGDAVLIAYDGSLPAMRALQVFALLGLGDGKQICVLAIDRDEAAAVRKANAAAEFLKIHGHAAQAVPSSSGDDPADLIRSAVAERNIGTVVMGAYGNRGFREALFGSTTDALVDTPPCALFLYH	failed
MSMSAQGKKAAESTTSTRPAKLDKQAYEAELKRLQAELVDMQQWVVETGARVVIIMEGRDAAGKGSAIKRMTQYLNPRTCRIEALPAPNSREQGQWYFQRYVEKLPTAGEIVIFDRSWYNRAGVERVMGFCTSQEYRRFLHQAPIFERLLVEDGIMLRKYWFSVSDEEQIARFKSRRNDPLRRWKLSPMDLQSITRWEDYSRAKDEMFVHTDIPSAPWYTVESEDKKRSRINVISHLLSTIPYEKIDRP	failed
MSNAFEYLRTYVESTTETDAAVARAREDAAEFGLPAPDEMTGQLLTTLAATTNGNGSTGAIAITPAAGLVGLYILNGLADNTTLTCIDPESEHQRQAKALFREAGYSPSRVRFLLSRPLDVMSRLANDSYQLVFGQVSPMDLKALVDAAWPLLRRGGALVLADALLDGTIADQTRKDRDTQAARDADEYIRSIEGAHVARLPLGAGLTVVTKALEHHHHHH	not failed
MSNDLINGSILHCLETASLGMPLEVWKTRMCVYRNENTIKSFKNIYNKGLGQFYAGFYAKLIESGSKGAVLLLSKEQIIKVCNDMNINKTTSGFIGGACGGICQSLVMTPCTFFITASIDKKINYKEKLIHIFKNTGITTLYKGNTAMCLRQGTNWASRQGITEWIRNIVMERKKNRKNKNDDINNVKGMIFSGNDITTDKIKHNNNNNNNNNTSQSKSLELTTSEELFCGIVGGALSVWNNPFDVVRVYMQNNANKNIKLTFFQSFIHLYKEGGILYLYKGVIPRCFLCIWQTLFMVTGIKILNKYF	failed
MSNDVDLIKRLGPSAMDQIMLYLAFSAMRTSGHRHGAFLDAAATAAKCAIYMTYLEQGQNLRMTGHLHHLEPKRVKAIVEEVRQALTEGKLLKMLGSQEPRYLIQFPYVWMEKYPWRPGRSRIPGTSLTSEEKRQIEQKLPSNLPDAHLITSFEFLELIEFLHKRSQEDLPKEHQMPLSEALAEHIKRRLLYSGTVTRIDSPWGMPFYALTRPFYAPADDQERTYIMVEDTARFFRMMRDWAEKRPNTMRVLEELDILPEKMQQAKDELDEIIRAWADKYHQDDGVPVVLQMVFGKKED	not failed
MSNEDSLPPFTLFGLDDVENYGLVTEADNSLPLDIHNQVFQLVEKGNQSFKESRFEEAISSYSKANSIKPLDPIVLGNRSAAYIRFGQYLKQRSASISEYKPLNGFDMSMLGELALKDADKLMSLQSSLVKSYITKACALMLLERYEVARDTILSGLQIDPFSGPLRSNLQELEKVMPNSMRKTHGMAERSDDFDCTVCLKLLYEPATTPCGHTFCRSCLFQSMDRGNKCPLCRTVIFMTPRTCAVSVTLNNIIEKNFPEEYAERKSEQDTLVHLGNESMPLFVMDVIIPCQKLSLHIFEPRYRLMVRRIMEGNHRMGMVALDSATGSPVDVACEVEITECDPLPDGRFVLELESHRRCRIVKAWDQDGYRVAEVEWVKDIPPQSEQGKADLRELTTSAASFARSWLDRAKEAARQGDRRRLEILLNVESMIPTPQDPERFSFWLATLTDRRPSERLELLRLQDTGEVLDYRLVQIARQISLFHQSLSFDC	failed
MSNEFEPYNKEIKKIEFTTWKYQASKDAEHSPSDEEELINELEVVKQEAFQKGYADGFQQAQEEINAIKAELSKWLDLIQKPVQILDEQLTQEIIQTIIWLSQHCVAVELSVNPDKLNDLLNKIKGELPSLTGKKSISMHPDDVRWIKEVFSESNIPGLHELLVADPALNRGDFYLQGEHSELDGRIQTRFTTLFNEYINKENIIP	failed
MSNEHKASIDGGQWAQCVRERGWLWDVAQGVEVQSAPTLILAHGAGAPMDSGFMNDIAVRLAGHGVNVLRFEFPYMAQRRLDGGKRPPNPAPRLLECWREVHALVRPYVTGVLALGGKSMGGRMASLLADELQADALVCLGYPFYAAGKPEKPRVAHLADLSVPSLIVQGERDALGNRQAVEAYTLAPGIELYWLTAADHDLKPLKASGFSHEQHLESAALKVAAFLKALS	failed
MSNELPAVICLVGPTGAGKTAAALHLAERFAGTVINADSRQVYRDFPIITAQPTAEEQAQCPHRLYGFLETEARMSAGVWGDHATAAIDEALAQGRLPLLVGGTGMYVRALLDGIAAIPAIPRDIHVRWQERCAAEGPQRLHAMLCDIDAEYAARIHPNDRQRVTRALEVHEHTGRTFSEWHRSAMPAPRYRALRIGFAATLDALTPRLAHRIDLMLAAGALDEARRARVHCDDPSAPGWSGIGCAETYAHLVGSLDYEAMRHVWLHNTRAYAKRQLTWFRADTRLTWYAPDDVEGIALGVASFLRGGA	failed
MSNHSSSIPELSDNGIRYYQTYNESLSLWPVRCKSFYISTRFGQTHVIASGPEDAPPLVLLHGALFSSTMWYPNIADWSSKYRTYAVDIIGDKNKSIPENVSGTRTDYANWLLDVFDNLGIEKSHMIGLSLGGLHTMNFLLRMPERVKSAAILSPAETFLPFHHDFYKYALGLTASNGVETFLNWMMNDQNVLHPIFVKQFKAGVMWQDGSRNPNPNADGFPYVFTDEELRSARVPILLLLGEHEVIYDPHSALHRASSFVPDIEAEVIKNAGHVLSMEQPTYVNERVMRFFNA	not failed
MSNIDFDKYRILLVNSYFQSRNAKITRFWNRATTNAKDIFHGIRTRKEFFSKIIRDFQTEFGEDFIEYLAGGELIGGITNILPIYENKMGVMERSGHIIHKKSGYHLTPDILSEYLINDVFFDNTFLKHNIEELAKADNGVHILDILNSLLKVKDDREIYREATEKLLEMLNCLESDNEQKKRRIRAGIVVYYGFGNLNLVTAAIGEFWTDYGILDDGIDLQALGIFLGDISKLYEARICMERANEIFKNNGDKIGIATSLHNLGIILHLQGNYEEAMNKYNQSLKIDEELGERHRISMSLRFLGRIEYDKGNYDDAVKLYNQSLMIAEKLGDQSGIAKLLGELGIVLLHQGNYDEAIKLYNQSLMIAEKLGDQSGIAGTLYELGKVYLIQDNYGESIEVQKRSLKIKELLGDKYGIAHSLHALGVTHEVKKEYTFALLNYLEASSIYKELNSPYSKDVSKLITDLRDKMGNEQFNKACKEFGYVPPDNI	failed
MSNKRIGVVIVSYGHEQDVANLVDTFADQLKTGDRVVVVDNRKPWVLKDAVGERLEKHGAEIINHDNGGFAAGCNVGAAHIVDDVDLLFFLNPDTVIDDPTLFNSLRRVDEQWAAFMPYLLLPDSTINSAGNALHISGLSWVTGLDEKPVEGSSEVTDISIASGACLAVRVDWWKRLGGMEELYFMYHEDTDFSARLLLAGGRIGLLHSAYVTHHYDYAKGDYKWIYIERNRHVLLLSVLPLPLLFVLIPQILGVNLGLWAIAAKEKRVGLKVKSLRLLIRDLPAIFKLRRSTQELAELTPSQYLAKMEWRLDNPNLGNIGSNKIVATGYKTYYKLCMSILKLLA	failed
MSNQQNVWVAYATQTQQFHIRVAFQQGMTAWQAIESSGLLTQVELPQPYHLGIFGVRCVADRLLEAGDRVEIYRPLTINPKDIRRKRAEKNPVGRFQKGNRFK	failed
MSNSHLGTLCFIISLLGLANFSLSQTGLDDSTMQSLKSSLNLTSDVDWSNPNPCKWQSVQCDGSNRVTKIQLKQKGIRGTLPTNLQSLSELVILELFLNRISGPIPDLSGLSRLQTLNLHDNLFTSVPKNLFSGMSSLQEMYLENNPFDPWVIPDTVKEATSLQNLTLSNCSIIGKIPDFFGSQSLPSLTNLKLSQNGLEGELPMSFAGTSIQSLFLNGQKLNGSISVLGNMTSLVEVSLQGNQFSGPIPDLSGLVSLRVFNVRENQLTGVVPQSLVSLSSLTTVNLTNNYLQGPTPLFGKSVGVDIVNNMNSFCTNVAGEACDPRVDTLVSVAESFGYPVKLAESWKGNNPCVNWVGITCSGGNITVVNMRKQDLSGTISPSLAKLTSLETINLADNKLSGHIPDELTTLSKLRLLDVSNNDFYGIPPKFRDTVTLVTEGNANMGKNGPNKTSDAPGASPGSKPSGGSDGSETSKKSSNVKIIVPVVGGVVGALCLVGLGVCLYAKKRKRPARVQSPSSNMVIHPHHSGDNDDIKLTVAASSLNSGGGSDSYSHSGSAASDIHVVEAGNLVISIQVLRNVTNNFSEENILGRGGFGTVYKGELHDGTKIAVKRMESSVVSDKGLTEFKSEITVLTKMRHRHLVALLGYCLDGNERLLVYEYMPQGTLSQHLFHWKEEGRKPLDWTRRLAIALDVARGVEYLHTLAHQSFIHRDLKPSNILLGDDMRAKVSDFGLVRLAPDGKYSIETRVAGTFGYLAPEYAVTGRVTTKVDIFSLGVILMELITGRKALDETQPEDSVHLVTWFRRVAASKDENAFKNAIDPNISLDDDTVASIEKVWELAGHCCAREPYQRPDMAHIVNVLSSLTVQWKPTETDPDDVYGIDYDMPLPQVLKKWQAFEGLSQTADDSGSSSSAYGSKDNTQTSIPTRPSGFADSFTSVDGR	failed
